Columns and labels:
[1] = molecular target: human activated Factor X (human) (UniProt P00742); assay: cell-based or functional assay
[2] = molecular target: human plasma-derived Factor X zymogen (human) (UniProt P00742); assay: cell-based or functional assay
[3] = molecular target: human plasma-derived Factor X zymogen (human) (UniProt P00742); assay: apparent KD fitted from FXa generation assay

human plasma-derived Factor X zymogen (human), sequence (P00742 41-179, chain 1 of 2): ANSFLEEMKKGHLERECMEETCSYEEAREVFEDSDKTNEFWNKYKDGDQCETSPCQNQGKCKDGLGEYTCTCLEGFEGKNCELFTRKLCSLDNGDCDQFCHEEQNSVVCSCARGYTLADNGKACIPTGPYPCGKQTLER
human plasma-derived Factor X zymogen (human), sequence (P00742 183-488, chain 2 of 2): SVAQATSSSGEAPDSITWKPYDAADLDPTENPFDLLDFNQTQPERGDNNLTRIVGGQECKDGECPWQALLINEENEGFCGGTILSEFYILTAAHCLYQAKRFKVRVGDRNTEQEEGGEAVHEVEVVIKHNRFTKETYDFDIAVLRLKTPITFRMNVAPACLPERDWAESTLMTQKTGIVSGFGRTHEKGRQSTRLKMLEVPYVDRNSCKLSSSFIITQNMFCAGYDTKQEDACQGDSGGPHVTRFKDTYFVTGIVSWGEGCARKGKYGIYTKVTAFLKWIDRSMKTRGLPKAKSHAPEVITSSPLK
human activated Factor X (human), sequence (P00742 41-179, chain 1 of 2): as the sequence (P00742 41-179, chain 1 of 2) above
human activated Factor X (human), sequence (P00742 235-488, chain 2 of 2): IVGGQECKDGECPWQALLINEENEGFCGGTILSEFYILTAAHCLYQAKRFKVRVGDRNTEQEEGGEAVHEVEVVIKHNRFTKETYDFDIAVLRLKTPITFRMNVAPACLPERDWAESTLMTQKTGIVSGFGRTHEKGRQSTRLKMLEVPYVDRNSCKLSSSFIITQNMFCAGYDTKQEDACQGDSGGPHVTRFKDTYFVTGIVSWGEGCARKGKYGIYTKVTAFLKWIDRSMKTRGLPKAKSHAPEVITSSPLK

- FXa amidolytic activity (relative to free FXa, fold) [1]: 1.02 fold
- Increase in FX activation (fold) [2]: < 0.6 fold
- Kd [3]: 3.9 µM
Substance: Fab ACE910 anti-FX (J327/L404-k)

— patent US20210054097A1
